B1: SC06-388 (scFv)
scFv: EVQLVETGAEVKKPGESLRISCKGSGYSFTSYWIAWVRQMPGKGLEWMGVIYPGDSDARYSPSFQGQVTMSVDKSISTAYLQWSSLKASDTAMYYCAKLRSKNTGLDYWGQGTLVTVSSGTGGSGGTGSGTGGSTQSALTQPPSASGSPGQSVTISCTGTSSDVGGYNFVSWYQQHPGKAPKLMIYEVSNRPSGVPDRFSGSKSGNTASLTVSGLQAEDEADYYCSSYAGNNNLAFGGGTQLTVL
B2: SC06-389 (scFv)
scFv: QVQLVQSGAEVKKPGESLKISCKGSGYSFSTYWIGWVRQMPGKGLEWMGIIYPGDSDTRYSPSFQGQVTISADKSISTAHLQWSSLKASDTAMYYCARPGPRGYNHGFDYWGQGTLVTVSSGTGGSGGTGSGTGGSTSSELTQDPAESVALGQTVKITCQGDSLRRYYASWYQQKPGQAPVLVIYGKNNRPSGIPDRFSGSRSGNTASLTITGAQAEDEAVYYCNSRDSSGNSVVFGGGTKLTVL
B3: SC06-402 (scFv)
scFv: QVQLVQSGAEVKKPGESLKISCKGSGYSFTSYWIGWVRQMPGKGLEWMGIIYPGDSDTRYSPSFQGQVTISADKSISTAYLQWSSLKASDTAMYYCARWGGVCSSTSCPNRDAFDIWGQGTMVTVSSGTGGSGGTGSGTGGSTQSALTQPRSVSGSPGQSVTISCTGTSSDVGGYNYVSWYQQHPGKAPKLMIYDVSNRPSGVSNRFSGSKSGNTASLTISGLQAEDEAEFHCSSYRSSGASPVVFGGGTKLTVL
B4: SC06-409 (scFv)
scFv: EVQLVQSGAEVKKPGESLKISCKGSGYSFTNYWIGWVRQMPGKGLEWMGIIYPGDSDTRYSPSFQGQVTISADKSISTAYLQWSSLKASDTAMYYCARHTQNKNGMNTFDIWGQGTMVTVSSGTGGSGGTGSGTGGSTQSALTQPPSASGSPGQSVTISCTGTSSDIGGYNYVSWYQQHPGKAPKLMIYEVSNRPPGVSNRFSGSKSGNTASLTISGLQAEDEADYYCSSYSTTTTRVIFGGGTKLTVL
B5: SC06-415 (scFv)
scFv: EVQLVESGGGLVQPGRSLRLSCAASGFTFDDYAMHWVRQAPGKGLEWVSGISWNSGSIGYADSVKGRFTISRDNAKNSLYLQMNSLRAEDSAVYYCARGGQRFDFWGQGTLVTVSSGTGGSGGTGSGTGGSTQSALTQPPSASGSPGQSVTISCTGTSSDVGGYNYVSWYQQLPGKAPKLLIYDVNNRPSGVSNRFSGSKSGNTASLTISGLQAEDEAEYYCGSSVGSRLRIFGGGTKLTVL
B6: SC06-429 (scFv)
scFv: QVQLVQSGAEVKNPGESLKISCKGSGYTFTSYWIGWVRQMPGKGLEWMGSIYPGDSDTRYSPSFQGQVTISVDKSISTAYLQWSSLKASDTAMYYCARQYRAGSTTRFDPWGQGTLVTVSSGTGGSGGTGSGTGGSTDVVMTQSPLSLPVTPGEPASISCRSSQSLRHRNGNNYLDWYLQKPGQSPQLLIYLGSNRASGVPDRFSGSGSGTDFTLKISRVEAEDVGIYYCMQALQTPLTFGGGTKVEIK
B7: SC06-432 (scFv)
scFv: QLQLQESGPGLVKPSQTLSLTCTVSGGSISSGGYYWSWIRQHPGKGLEWIGYIYYSGSTYYNPSLKSRVTISVDTSKNQFSLKLSSVTAADTAVYYCARERILDRMNDYWGQGTLVTVSSGTGGSGGTGSGTGGSTQSVVTQPPSVSGAPGQRVTISCTGSSSNIGAGYDVHWYQQLPGTAPKLLIYGNSNRPSGVPDRFSGSKSGTSASLAITGLQAEDEADYYCQSSDSSLNILFGGGTKLTVL
B8: SC05-179 (scFv)
scFv: EVQLVESGGGLVKPGGSLGLSCAASGFFFSDYSMSWIRQAPGKGLEWLSNISGSGHSTKYAESMRGRITISRDNAKKSLSLQLNSLRAEDTAVYFCVRGGGYRMDVWGQGTTVTVSSGTGGSGGTGSGTGGSTQSALTQPRSVPGSPGQSVTISCTGTSSDVGGYNYVSWYQQHPGKAPKLMIYDVSKRPSGVPDRFSGSKSGNTASLTVSGLQAEDEADYYCSSYAGSNNFVVFGGGTKLTVL
B9: SC05-187 (scFv)
scFv: EVQLVQSGAEVKKPGESLKISCKGSGYSFTKYWIGWVRQMPGKGLEWMGIIYPGDSDTRYSPSFQGQVTISADKSISTAYLQWSSLKASDTAMYYCARGSGIATGNSFDSWGQGTLVTVSSGTGGSGGTGSGTGGSTQTVVTQEPSLTVSPGGTVTLTCASSTGAVTSGYYPNWFQQKPGQAPRALIYSTSKKHSWTPARFSGSLLGGRAALTLSGAQPEDEADYYCLLSYGGARVFGGGTKLTVL
B10: SC06-016 (scFv)
scFv: QVQLVQSGPEVKKPGASVTVSCKASGYSFSSYGISWVRQAPGQGLEWMGRIIPVGGNTLYSQMFQGRVTMTSDTSTSTVYLELSSLRSEDTAVYFCARDGGRWQFDYWGQGTLVTVSSGTGGSGGTGSGTGGSTDIQLTQSPSSVSASVGDRVTITCRASQGISNWLAWYQQKPGKAPELLIYAASSLQSGVPPRFSGSASGTDFTLTISSLQPEDFATYYCQQSKNFPYTFGQGTKVEIK
B11: SC06-043 (scFv)
scFv: EVQLVESGAEVKKPGESLKISCKGSGYSFTSYWIGWVRQMPGKGLEWMGIIYPGDSDTRYSPSFQGQVTISADKSISTAYLQWSSLKASDTAMYYCARRYCSGGTCSDGFDIWGQGTMVTVSSGTGGSGGTGSGTGGSTQSALTQPPSASGSPGQSVTISCTGTSSDVGGYNYVSWYQQHPGKAPKLMIYEVSKRPSGVPDRFSGSKSGNTASLTVSGLQAEDEADYYCSSYAGSNNLVFGGGTKLTVL
B12: SC06-049 (scFv)
scFv: QVQLVQSGAEVKKPGESLKISCKGSGYSFTSYWIGWVRQMPGKGLEWMGIIYPGDSDTRYSPSFQGQVTISADKSIGTAYLQWSSLKASDTAMYYCARLFRVRGGHFDSWGQGTLVTVSSGTGGSGGTGSGTGGSTQSALTQPASVSGSPGQSITISCTGTNSDVGGYNYVSWYQQHPGKAPKLLIYDVTNRPSGVSNRFSASKSGNTASLTISGLQAEDEADYYCSSFTSSSTRVFGGGTKLTVL
B13: SC06-050 (scFv)
scFv: EVQLVESGPEVKKPGASVKVSCEASGYNLDNYGITWVRQAPGQGLEWLGWISAYNAKTEYGQRLQGRVTMTTDTATSTAYLELRSLRSDDTAVYYCARVLGYRGGWYDEGDAFDVWGQGTMVTVSSGTGGSGGTGSGTGGSTDIQLTQSPSFLSASVGDRVTITCRASQGIRSHLAWYQQKAGKAPKLLIYAASTLQSGVPSRFSGSGSGTEFTLTISSLQPDDFAAYYCQQLNTYPITFGQGTRLEIK
notes: also called SC05-050

These binders were tested against T1, BSA (bovine serum albumin) (bovine (송아지 혈청 알부민), UniProt P02769 25-607) (assay: phage ELISA, 1% BSA coated, anti-M13 peroxidase, OD 492 nm).
T1 construct: Negative control antigen of the phage ELISA; also called 송아지 혈청 알부민
T1 sequence (P02769 25-607 limits assumed): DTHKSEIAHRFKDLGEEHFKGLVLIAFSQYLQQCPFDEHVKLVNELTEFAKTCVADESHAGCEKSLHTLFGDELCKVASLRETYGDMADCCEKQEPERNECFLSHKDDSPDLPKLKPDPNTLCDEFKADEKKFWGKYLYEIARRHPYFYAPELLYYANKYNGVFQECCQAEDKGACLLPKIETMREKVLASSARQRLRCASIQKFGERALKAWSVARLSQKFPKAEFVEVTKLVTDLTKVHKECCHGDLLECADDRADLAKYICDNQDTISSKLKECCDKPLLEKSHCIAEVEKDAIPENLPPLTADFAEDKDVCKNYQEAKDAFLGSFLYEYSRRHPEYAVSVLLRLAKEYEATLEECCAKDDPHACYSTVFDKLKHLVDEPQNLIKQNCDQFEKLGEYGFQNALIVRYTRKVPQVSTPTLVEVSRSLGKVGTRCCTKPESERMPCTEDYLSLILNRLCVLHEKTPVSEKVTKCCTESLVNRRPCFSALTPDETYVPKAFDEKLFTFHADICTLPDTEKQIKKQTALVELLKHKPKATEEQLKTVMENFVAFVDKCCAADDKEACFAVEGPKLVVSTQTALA
B1: no binding.
B2: no binding.
B3: no binding.
B4: no binding.
B5: no binding.
B6: no binding.
B7: no binding.
B8: no binding.
B9: no binding.
B10: no binding.
B11: no binding.
B12: no binding.
B13: no binding.

Source: patent KR20140095558A (dated 2014)
